Assay results from the nanobody polyreactivity screen of Harvey et al. (2022).

Test: yeast display, Sf9 membrane polyspecificity reagent, FACS + sequencing; frameworks hold sequencing errors
In short: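 In a synthetic yeast display library (Saccharomyces cerevisiae BJ5465), nanobody expression was induced with galactose for 36–48 hours. FACS gates were set low and high (top ~1%) using anti-HA fluorescence for expression and streptavidin fluorescence for binding of the Sf9 membrane reagent. Each polyreactivity label is drawn from the gate of origin.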

Sequence | polyreactivity (PSR sort gate)
QVQLVESGGGLVQAGGSLRLSCAASGRIFFLYAMGWYRQAPGKERELVASINRGGNTNYADSVKGRFTISRDNAKNTVYLHMNSLKPEDTAVYYCAARLVIFYPYSRYYYWGQGTQVTVSS | high polyreactivity
QVQLVESGGGLVQAGGSLRLSCAASGRIFFPYAMGWYRQAPGKERELVAAINYSGGSTYYADSVKGRFTISRDNAKNTVYLQMNSLKPEDTAVYYCADGYFWALYVRKYDYWGQGTQVTVSS | high polyreactivity
QVQLVESGGGLVQAGGSLRLSCAASGRIFFRYVMGWYRQAPGKERELVAAIDRGGTTNYADSVKGRFTISRDNAKNTVYLQMNSLKPEDTAVYYCAVRYFPYRDYYWGQGTQVTVSS | high polyreactivity
QVQLVESGGGLVQAGGSLRLSCAASGRIFFTNAMGWYRQAPGKERELVAAISKYGARTYYADSVKGRFTISRDKAKNTVYLQMNSLKPEDTAVYYCAADVSVSGYYYWGQGTQVTVSS | high polyreactivity
QVQLVESGGGLVQAGGSLRLSCAASGRIFFTNTMGWYRQAPGKERELVAAITRSGTRTYYADSVKGRFTISRDNAKNTVYLQMNSLKPEDTAVYYCNAVVRQLVRYDYWGQGTQVTVSS | high polyreactivity
QVQLVESGGGLVQAGGSLRLSCAASGRIFFVYAMGWYRQAPGKERELVASITGGGSTNYADSVKGRFTISRDNAKNTVYLQMNSLKPEDTAVYYCAADIHSTRVFPEYPSGYDYWGQGTQVTVSS | low polyreactivity
QVQLVESGGGLVQAGGSLRLSCAASGRIFFVYAMGWYRQSPGKERELVAAISVSDVSTSYADSVKGRFTISRDIAKNTVYLQMNSLKQEDTAVYYCNAGFRFYVYSRIGGEDYWGQGTQVTVSS | low polyreactivity
QVQLVESGGGLVQAGGSLRLSCAASGRIFFYNAMGWSRQAPGKERELVAAISARGDRTYYADSVKGRFTISRDNAKNTVYLQMNSLKPEDTAVYYCAADYYNYRYDYWGQGTQVTVSS | high polyreactivity
QVQLVESGGGLVQAGGSLRLSCAASGRIFGANAMGWYRQAPGKERELVAAISYSGSRTYYADSVKGRFTISRDNAKNTVYLQMNSLKPEDTAVYYCNTGIAGRRSGYRTDSDYWGQGTQVTVSS | high polyreactivity
QVQLVESGGGLVQAGGSLRLSCAASGRIFGAYALGWYRQAPGKERELVAAINSGGSTFYAHSVKGRFTISRDNAKNTVYLQLNSLKPDDTAVYYCAKRSYDYRRYYWGQGTQVTVSS | high polyreactivity
QVQLVESGGGLVQAGGSLRLSCAASGRIFGAYAMGWSRQAPGKERELVAAISSSGSRTYYADSVKGRFTISRDNAKNTVYLQMNSLKPEDTAVYYCAATRVSALYDYWGQGTQVTVSS | high polyreactivity
QVQLVESGGGLVQAGGSLRLSCAASGRIFGAYAMGWYRQAPGKERELVAAITGGGSTYYADSVKGRFTISRDNAKTTVYLQMKSLKPEDTAVYYCAADYYWTYSYYYERFDYWGQGTQVTVSS | low polyreactivity
QVQLVESGGGLVQAGGSLRLSCAASGRIFGAYAMGWYRQAPGKERELVAVITTDGSTTYADSVKGRFTISRDNAKNTVYLQMNSLKPEDTAVYYCAAYGGNGQYYSQYDYWGQGTQVTVSS | low polyreactivity
QVQLVESGGGLVQAGGSLRLSCAASGRIFGDNALGWYRQAPGKERELVAAITWSGGSTYYADSVKGRFTISRDNAKNTVYLQMNSLKPEDTAVYYCAADSHRDSSEMDYWGQGTQVTVSS | low polyreactivity
QVQLVESGGGLVQAGGSLRLSCAASGRIFGDNDMGWSRQAPGKDRELVAGIRWRADRTYYADSVKGRFTISRDNAKNTVYLQMNSLKPEDTAVYYCNVGSFTGHSYGFGYWGQGTQVTVSS | low polyreactivity
QVQLVESGGGLVQAGGSLRLSCAASGRIFGDNGMGWYRQAPGKERELVTYADSVKGRFTISRDNAKNTVYLQMNSLKAEDTAVYESNKDPPGFSGLDEIYWGQGTQVTVSS | low polyreactivity
QVQLVESGGGLVQAGGSLRLSCAASGRIFGDNVMGWYRQPPGKERELVAAIRKSGGNTYYADSVKGRFTISRDNAKNTVYLHMNSLKPEDTAVYYCAARYPYLYGFVEYDYWGQGTQVTLSS | low polyreactivity
QVQLVESGGGLVQAGGSLRLSCAASGRIFGDYAMGWYRQAPGKERELVAGINFSGGSTYYADSVKGRFTISRDNAKNTVYLQMNSLKPEDTAVYYCNVDSSTIWYLVPGDYWGQGTQVTVSS | low polyreactivity
QVQLVESGGGLVQAGGSLRLSCAASGRIFGDYGMGWYRQAPGKERELVAAISSGGSTNYADSVKGRFTISRDNAKNTVYLQMNSLKPEDTAVYYCAKATYPHEYDYWGQGTQVTVSS | low polyreactivity
QVQLVESGGGLVQAGGSLRLSCAASGRIFGFNMGWYRQAPGKERELVAAINSGGGTYYADSVKGLFTISRDNAKNTVYLQMNSLKPEYTAVYYCNARFRFRLGQYRYDYWGQGTQVTVSS | high polyreactivity
QVQLVESGGGLVQAGGSLRLSCAASGRIFGGNADMGWDRQAPGKERELVAVIDWSGGSTYYADSVKGRFTISRDNAKNTVYFQMHSLKPEDTAVYYCNADAPRSSGDYGQGDYWGQGTQVTVSS | high polyreactivity
QVQLVESGGGLVQAGGSLRLSCAASGRIFGGNAMGWYRPAPGKERELVAAITTRGGSTYADSVKGRFTISRDNAKNTVYLQMNSLKPEDTAVYYCAVERSYHGGPRYLVRTYGYWGQGTQVTVSS | low polyreactivity

Sequence | polyreactivity (PSR sort gate)
QVQLVESGGGLVQAGGSLRLSCAASGRIFGGNVRGWYRQAPGKERELVAGISFSGGSTYYADSVKGRFTISRDNAKNTVYLQMNSLKPEDTAHYYCAASTYQPGALPFDYWGQGTQVTVSS | low polyreactivity
QVQLVESGGGLVQAGGSLRLSCAASGRIFGGYAMGWYRQAPGKERELVAAIRDSGRTYYADSVKGRFTISRDNAKNTVYLQMNSLKPEDTAVYYCAADAHSSYSPFRWYDYWGQGTQVTVSS | low polyreactivity
QVQLVESGGGLVQAGGSLRLSCAASGRIFGGYAMGWYRQAPGKERELVAAISRSGGSTYYADSVKGRFTISRDNAKNTVYLQMNSLKPEDTAVYYCNVASKRALSRYKGYYWGQGTQVTVSS | high polyreactivity
QVQLVESGGGLVQAGGSLRLSCAASGRIFGGYAMGWYRQAPGKERELVAGIRSGGSTYYADSVKGRFTISRDIAKNTVYLQINSLKPEDTAVYYCNARLYFWNRYTYSQNNYWGQGTQVTVSS | high polyreactivity
QVQLVESGGGLVQAGGSLRLSCAASGRIFGGYGRGWYRQAPGKERELVAAITSGDGSTYAESVKGRFTISRDNAKNTVYLQMNSLKPEDTAVYYCADESFGYSIDITDHEYWGQGTQVTVSS | high polyreactivity
QVQLVESGGGLVQAGGSLRLSCAASGRIFGGYVMGWYRQAPGKEREFVAAISGRGTSTSYADSVKGRFTISRDNAKNTVYLQMNSLKPEDTAVYYCAARRDGWTFWKYDYWGQGTQVTVSS | high polyreactivity
QVQLVESGGGLVQAGGSLRLSCAASGRIFGHYAMGWYRQAPGKERELVAAITIGGSTYYADSVKGRFTISRDNAKNTVYLQMNSLKPEDTAVYYCAKVGSNYRGRLGYWGQGTQVNVSS | low polyreactivity
QVQLVESGGGLVQAGGSLRLSCAASGRIFGHYAMGWYRQAPGKERELVAAITRSGDRTYYADSVKGRFTISRDNAKNTVYLQMNSLKPEDTEVYYCAADVSAVQGYYYWGQGTQVTVSS | low polyreactivity
QVQLVESGGGLVQAGGSLRLSCAASGRIFGHYARGWYRQAPGKERELVAAITSGGRTYYADSVKGRFTISRDNAKNTVYLQMNSLKPEDTAVYYFNVRVFVGLQPFGYWGQGTQVTVSS | high polyreactivity
QVQLVESGGGLVQAGGSLRLSCAASGRIFGHYVMGWYRQAPGTERELVAAISYSGGSTYYAHSVKGRFTISRDNAKNTVYLQMNSLKPEDTAVYYCAAYVYRYHRVAYEYWGQGTQVTVSS | high polyreactivity
QVQLVESGGGLVQAGGSLRLSCAASGRIFGINAMGWYRQAPGKERALVAAISRSGSRTYYADSVKGRFTISRDNAKNTVYLQMNSLKPEDTAVYYCAAQKRVYDSVRSTDRYDYWGQGTQVTVSS | high polyreactivity
QVQLVESGGGLVQAGGSLRLSCAASGRIFGIYAMGWYRQAPGKERELVAAINSGDSTYADSVKGRFTISRDNAKNTVYLQMNSLKPEDTAVYYCAAEESTSSWSINDYWGQGTQVTVSS | low polyreactivity
QVQLVESGGGLVQAGGSLRLSCAASGRIFGIYAMGWYRQAPGKERELVAVITRGDRTYADSVKGRFTISRDNAKNTVYLQMNSLKTEDTAVYYCNADTGYRFDYWGQGTQVTVSS | high polyreactivity
QVQLVESGGGLVQAGGSLRLSCAASGRIFGKYALGWYRQAPGKERELVAAISGRGGRTYYADSVKGRFTISRDNAKNTVYLQMNSLKPEDTAVYYFANDPRGSRYDYWGQGTQVTVSS | high polyreactivity
QVQLVESGGGLVQAGGSLRLSCAASGRIFGKYTMGWYRQAPGKERELVAAISWGGGSTYYADSVKGRFTISRDNAKNTVYLQMNSLKPEDTAVYYCAADYYYYHTQEYDYWGQGTQVTVSS | high polyreactivity
QVQLVESGGGLVQAGGSLRLSCAASGRIFGKYVMGWYRQAPGKERELVAGISWSAGSTYYADSVKGRYTISRDNAKYTVYLQMNSLKPEDTAVYYCAAGLEGGYDYWGQGTQVTVSS | low polyreactivity
QVQLVESGGGLVQAGGSLRLSCAASGRIFGLNAMGWYRQAPGKEREFVAAITWRGGRTYYADSVKGRFTISRDNAKNTVYLQMNSLKPEDTAVYYCAADGGSTLDYYWGQGTQVTVSS | low polyreactivity
QVQLVESGGGLVQAGGSLRLSCAASGRIFGLYAMGWYRQAPGKEREFVAAINWDGGSTFYADSVKGRFTISRDNAKNTVYLQMNSLKPEDTAVYYCAADVYSYVSYSTYVSVFTYDYWGQGTQVTVSS | low polyreactivity
QVQLVESGGGLVQAGGSLRLSCAASGRIFGLYAMGWYRQAPGKERELVAAIRGRGGRTSYADSVKGRFTISRDNAKNTVYLQMNSLKPEDTAVYYCNAELYPWPGVVRYNYWGQGTQVTVSS | high polyreactivity
QVQLVESGGGLVQAGGSLRLSCAASGRIFGLYAMGWYRQAPGKERELVAAYADSVKGRFTISRDYAKNTVYLQMNSLKPEDTAVYYCAKGPLYAGYSIDLRDFNYWGQGTQVTVSS | low polyreactivity
QVQLVESGGGLVQAGGSLRLSCAASGRIFGLYTIGWYRQAPGKDREFVAGITYSAGRTYYADSVKGRFPISRDNAKNTVYLQMNSLKPEDTAVYYCAARIYSKFTSYGILDSWGQGTQVTVSS | high polyreactivity
